Measurements: publication PMC4410316
Where two headings read alike, the source gives them in different places.

How the values were obtained:
human thrombin (HT) [1] = biological target: T1, human thrombin (HT) (Homo sapiens (human), UniProt P00734;P00734 328-363;364-622); assay: nanopore single-molecule titration
human thrombin (HT) [2] = biological target: T1, human thrombin (HT); assay: nanopore single-molecule titration; remark: listed apart in the source
human thrombin (HT) [3] = biological target: T1, human thrombin (HT); assay: nanopore single-molecule
human thrombin (HT) [4] = biological target: T1, human thrombin (HT); assay: nanopore single-molecule titration; remark: listed apart in the source
human thrombin (HT) [5] = biological target: T1, human thrombin (HT); assay: nanopore single-molecule titration; remark: listed apart in the source

GGTTGGTGTGGATGG (structured_DNA) [TBA-T12A]
Kd (human thrombin (HT) [1]): 7 ± 1 nM

GGATGGTGTGGTTGG (structured_DNA) [TBA-T3A]
Kd (human thrombin (HT) [2]): 6 ± 1 nM

CACCATCACCACCATCAT (ssDNA) [Random DNA]
binding result (human thrombin (HT) [3]): no binding

GGTTGGTGTGGTTGG (structured_DNA) [TBA]
Kd (human thrombin (HT) [4]): 8 ± 1 nM
Kd (human thrombin (HT) [5]): 13 ± 3 nM
